Assay results: PMC4346865
Where “and” joins values, the source holds several entries; their conditions need not be identical. Equal entries are not always repeated.

B1: R12.06 (5'-amino-C6) (ssDNA)
DNA: TGTACCGTCTGAGCGATTCGTACGATTACTATAATTTCCTATCGTCCGACCGCCGTCAGCCAGTCAGTGTTAAGGAGTGC
modifications: 5' amino-C6
B2: R12.06 (FAM) (ssDNA)
DNA: B1 DNA

Columns and labels:
[1] = molecular target: T1, alpha toxin (alpha-hemolysin) (Staphylococcus aureus, UniProt P09616 27-319); test: SPR; […] (pH not stated); SPR temperature not stated; […]; details: protein: commercial; stem-loop (Mfold)
T1 sequence (P09616 27-319): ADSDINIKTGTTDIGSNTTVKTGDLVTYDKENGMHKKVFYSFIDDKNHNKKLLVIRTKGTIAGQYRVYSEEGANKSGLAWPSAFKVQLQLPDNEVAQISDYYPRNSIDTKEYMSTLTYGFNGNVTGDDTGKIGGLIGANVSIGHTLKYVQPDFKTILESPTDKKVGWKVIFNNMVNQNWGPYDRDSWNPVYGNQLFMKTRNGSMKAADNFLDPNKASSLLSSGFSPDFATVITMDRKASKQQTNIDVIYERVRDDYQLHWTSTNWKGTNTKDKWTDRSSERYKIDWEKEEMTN

[2] = molecular target: T1, alpha toxin (alpha-hemolysin); test: SPR; assay 1; […] (pH not stated); SPR temperature not stated; […]; details: protein: commercial; stem-loop (Mfold)
[3] = molecular target: T1, alpha toxin (alpha-hemolysin); test: SPR; assay 2; […] (pH not stated); SPR temperature not stated; […]; details: protein: commercial; stem-loop (Mfold)
[4] = molecular target: cholera toxin (UniProt P01555;P01556 19-258;22-124); test: […] (pH not stated); SPR temperature not stated; […]; details: protein: commercial; copies: 1;5; stem-loop (Mfold)
cholera toxin, sequence (P01555 19-258, chain 1 of 2): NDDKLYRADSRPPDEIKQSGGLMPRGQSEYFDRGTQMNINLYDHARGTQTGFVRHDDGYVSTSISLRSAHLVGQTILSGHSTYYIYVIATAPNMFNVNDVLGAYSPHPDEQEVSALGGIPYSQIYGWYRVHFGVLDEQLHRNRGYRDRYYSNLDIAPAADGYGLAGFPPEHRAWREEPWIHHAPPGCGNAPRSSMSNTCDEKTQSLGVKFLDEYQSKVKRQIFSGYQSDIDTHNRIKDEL
cholera toxin, sequence (P01556 22-124, chain 2 of 2): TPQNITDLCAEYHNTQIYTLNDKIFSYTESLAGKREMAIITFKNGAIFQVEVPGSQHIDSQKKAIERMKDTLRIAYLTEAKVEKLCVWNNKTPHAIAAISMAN

[5] = molecular target: T1, alpha toxin (alpha-hemolysin); test: as above; details: protein: commercial; stem-loop (Mfold)
[6] = molecular target: toxin B (UniProt P18177 2-2366); test: as above; details: protein: commercial; stem-loop (Mfold)
toxin B, sequence (P18177 2-2366): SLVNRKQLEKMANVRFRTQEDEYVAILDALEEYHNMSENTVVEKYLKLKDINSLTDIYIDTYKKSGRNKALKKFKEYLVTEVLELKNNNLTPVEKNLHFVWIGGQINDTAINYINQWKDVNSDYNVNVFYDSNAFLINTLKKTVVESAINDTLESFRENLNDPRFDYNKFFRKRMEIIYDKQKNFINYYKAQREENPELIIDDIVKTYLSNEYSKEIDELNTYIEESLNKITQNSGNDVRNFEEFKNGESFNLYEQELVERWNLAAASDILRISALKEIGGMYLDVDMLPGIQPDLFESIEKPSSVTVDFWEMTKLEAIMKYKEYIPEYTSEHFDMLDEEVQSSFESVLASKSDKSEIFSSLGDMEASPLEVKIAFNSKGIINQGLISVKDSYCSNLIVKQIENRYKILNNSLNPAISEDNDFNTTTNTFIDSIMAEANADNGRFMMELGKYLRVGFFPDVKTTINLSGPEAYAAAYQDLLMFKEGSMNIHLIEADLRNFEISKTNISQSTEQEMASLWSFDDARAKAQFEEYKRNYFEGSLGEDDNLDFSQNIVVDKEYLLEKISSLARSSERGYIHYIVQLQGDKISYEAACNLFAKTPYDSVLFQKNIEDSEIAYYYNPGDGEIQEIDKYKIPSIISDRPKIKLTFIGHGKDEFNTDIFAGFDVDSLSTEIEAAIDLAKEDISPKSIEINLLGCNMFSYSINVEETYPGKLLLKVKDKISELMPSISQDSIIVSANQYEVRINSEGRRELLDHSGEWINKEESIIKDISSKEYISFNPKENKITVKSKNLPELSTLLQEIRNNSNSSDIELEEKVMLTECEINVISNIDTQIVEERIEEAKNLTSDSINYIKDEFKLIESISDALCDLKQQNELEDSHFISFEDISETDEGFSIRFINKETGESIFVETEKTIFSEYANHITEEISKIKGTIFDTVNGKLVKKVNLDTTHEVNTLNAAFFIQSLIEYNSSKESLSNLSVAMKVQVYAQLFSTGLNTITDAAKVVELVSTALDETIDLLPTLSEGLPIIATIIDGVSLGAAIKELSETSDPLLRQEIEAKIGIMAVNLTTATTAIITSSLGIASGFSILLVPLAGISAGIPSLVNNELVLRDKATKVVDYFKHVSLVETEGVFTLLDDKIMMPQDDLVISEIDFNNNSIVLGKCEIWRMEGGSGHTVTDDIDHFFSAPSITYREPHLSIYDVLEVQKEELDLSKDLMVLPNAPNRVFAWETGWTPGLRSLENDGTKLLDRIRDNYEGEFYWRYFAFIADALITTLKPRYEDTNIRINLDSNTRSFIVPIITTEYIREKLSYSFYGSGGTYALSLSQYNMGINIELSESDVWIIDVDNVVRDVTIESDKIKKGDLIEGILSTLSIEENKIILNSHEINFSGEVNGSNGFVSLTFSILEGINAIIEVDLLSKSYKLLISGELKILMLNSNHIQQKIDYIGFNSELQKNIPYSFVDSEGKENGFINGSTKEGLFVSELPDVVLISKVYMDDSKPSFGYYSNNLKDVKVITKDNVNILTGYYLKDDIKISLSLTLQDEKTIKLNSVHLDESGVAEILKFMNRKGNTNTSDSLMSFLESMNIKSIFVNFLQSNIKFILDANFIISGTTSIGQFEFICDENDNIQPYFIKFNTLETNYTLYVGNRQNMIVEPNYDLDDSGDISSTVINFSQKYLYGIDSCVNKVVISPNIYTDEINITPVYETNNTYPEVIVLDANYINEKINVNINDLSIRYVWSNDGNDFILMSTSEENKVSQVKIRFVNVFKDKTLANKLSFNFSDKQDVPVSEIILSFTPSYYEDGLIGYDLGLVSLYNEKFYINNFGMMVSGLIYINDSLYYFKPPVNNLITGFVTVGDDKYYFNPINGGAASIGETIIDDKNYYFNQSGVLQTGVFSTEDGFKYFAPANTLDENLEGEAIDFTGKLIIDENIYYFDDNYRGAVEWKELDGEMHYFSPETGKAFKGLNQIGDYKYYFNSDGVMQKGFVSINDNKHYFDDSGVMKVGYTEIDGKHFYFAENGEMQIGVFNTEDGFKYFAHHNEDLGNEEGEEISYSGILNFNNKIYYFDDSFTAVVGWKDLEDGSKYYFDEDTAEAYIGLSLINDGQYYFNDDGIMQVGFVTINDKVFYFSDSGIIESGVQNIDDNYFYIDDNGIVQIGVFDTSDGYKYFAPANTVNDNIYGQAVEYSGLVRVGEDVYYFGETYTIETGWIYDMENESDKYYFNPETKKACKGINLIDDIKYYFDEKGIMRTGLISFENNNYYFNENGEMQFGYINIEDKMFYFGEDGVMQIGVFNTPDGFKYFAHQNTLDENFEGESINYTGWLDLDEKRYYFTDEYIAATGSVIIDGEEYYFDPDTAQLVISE

[7] = molecular target: exotoxin A (UniProt P11439 26-638); test: fluorescence plate binding; p = 0.004; […] (pH not stated); SPR temperature not stated; […]; details: protein: commercial; stem-loop (Mfold)
exotoxin A, sequence (P11439 26-638): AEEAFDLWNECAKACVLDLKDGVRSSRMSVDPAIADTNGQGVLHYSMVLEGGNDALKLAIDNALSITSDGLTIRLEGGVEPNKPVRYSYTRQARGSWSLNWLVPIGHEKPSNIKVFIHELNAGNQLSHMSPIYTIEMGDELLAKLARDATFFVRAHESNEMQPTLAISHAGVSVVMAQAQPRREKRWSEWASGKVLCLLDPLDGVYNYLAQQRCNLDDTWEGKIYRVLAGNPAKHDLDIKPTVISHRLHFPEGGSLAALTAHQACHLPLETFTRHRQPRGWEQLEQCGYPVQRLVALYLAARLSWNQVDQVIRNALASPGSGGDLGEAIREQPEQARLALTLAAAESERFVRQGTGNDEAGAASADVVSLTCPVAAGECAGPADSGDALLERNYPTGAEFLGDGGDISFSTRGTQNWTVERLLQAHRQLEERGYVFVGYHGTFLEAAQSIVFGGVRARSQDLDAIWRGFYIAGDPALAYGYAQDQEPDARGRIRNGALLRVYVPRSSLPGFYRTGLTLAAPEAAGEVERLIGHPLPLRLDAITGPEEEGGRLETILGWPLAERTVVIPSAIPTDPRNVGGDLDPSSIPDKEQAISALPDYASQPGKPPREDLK

Binder	Kd [1]	Kd [2]	Kd [3]	binding signal [4]	binding signal [5]	binding signal [6]	binding signal [7]
B1	93.7 nM and 90.7 nM	102 nM	88.7 nM	–	–	–	–
B2	–	–	–	1.5 fold lower than alpha toxin	1 relative to alpha toxin	5 fold lower than alpha toxin	1.5 fold lower than alpha toxin
